Assay [1] addresses factor H (FH) from human, purified (human) (UniProt P08603). Put plainly: SPR; Biacore 3000; ten micrograms of FH from human, mouse or horse conjugated to a CM5 chip; CspA proteins injected at 10 μL/min, 25°C; 1:1 Langmuir model. Background: Surface plasmon resonance follows binding to a sensor surface in real time, without labels.
Assay [2] has as its target factor H (FH) from mouse, purified (mouse (Mus musculus)) (UniProt P06909). Described as above.
The target in assay [3] is factor H (FH) from human, purified (human) (UniProt P08603). Put plainly: ELISA; one microgram of FH coated on microtiter wells; 0.03125 to 2 μM histidine-tagged CspA proteins or DbpA added; detected by mouse anti-histidine tag; KD from a one-site fit of OD405. For orientation: An ELISA detects its analyte on a solid surface through an enzyme-linked reagent.
factor H (FH) from human, purified (human), sequence (P08603 19-1231): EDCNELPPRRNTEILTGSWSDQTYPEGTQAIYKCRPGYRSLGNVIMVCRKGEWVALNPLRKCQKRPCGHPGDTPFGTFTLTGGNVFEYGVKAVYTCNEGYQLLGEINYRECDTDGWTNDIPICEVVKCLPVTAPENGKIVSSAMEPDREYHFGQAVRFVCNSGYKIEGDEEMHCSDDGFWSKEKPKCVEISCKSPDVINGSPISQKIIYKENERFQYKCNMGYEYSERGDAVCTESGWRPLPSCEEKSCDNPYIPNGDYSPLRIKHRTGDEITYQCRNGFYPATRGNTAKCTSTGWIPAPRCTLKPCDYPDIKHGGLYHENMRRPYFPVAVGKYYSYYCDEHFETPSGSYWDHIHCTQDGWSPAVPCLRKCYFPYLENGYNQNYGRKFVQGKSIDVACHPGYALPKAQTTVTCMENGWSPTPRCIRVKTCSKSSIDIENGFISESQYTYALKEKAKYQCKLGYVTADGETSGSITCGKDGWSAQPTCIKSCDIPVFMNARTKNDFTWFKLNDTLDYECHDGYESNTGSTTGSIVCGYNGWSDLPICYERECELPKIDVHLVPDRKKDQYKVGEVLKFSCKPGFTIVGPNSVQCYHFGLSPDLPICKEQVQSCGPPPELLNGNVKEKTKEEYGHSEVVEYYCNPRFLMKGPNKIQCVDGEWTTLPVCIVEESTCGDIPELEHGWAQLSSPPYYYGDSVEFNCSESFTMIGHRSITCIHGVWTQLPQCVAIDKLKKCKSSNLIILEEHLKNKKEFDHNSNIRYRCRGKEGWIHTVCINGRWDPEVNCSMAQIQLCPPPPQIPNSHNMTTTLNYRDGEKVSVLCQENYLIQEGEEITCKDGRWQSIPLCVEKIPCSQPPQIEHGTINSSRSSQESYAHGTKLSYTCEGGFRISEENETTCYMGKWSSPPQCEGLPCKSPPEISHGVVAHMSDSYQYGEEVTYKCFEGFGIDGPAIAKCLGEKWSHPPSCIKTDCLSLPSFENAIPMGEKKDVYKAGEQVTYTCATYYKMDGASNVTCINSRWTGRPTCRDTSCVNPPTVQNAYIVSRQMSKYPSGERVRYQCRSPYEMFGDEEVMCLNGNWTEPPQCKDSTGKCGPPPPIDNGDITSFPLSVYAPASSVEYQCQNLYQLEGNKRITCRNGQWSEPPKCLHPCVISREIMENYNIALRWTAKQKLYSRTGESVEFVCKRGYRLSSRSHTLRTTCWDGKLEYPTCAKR
For assay [4], the target named is factor H (FH) from mouse, purified (mouse (Mus musculus)) (UniProt P06909). The assay is described as above.
factor H (FH) from mouse, purified (mouse (Mus musculus)), sequence (P06909 19-1234): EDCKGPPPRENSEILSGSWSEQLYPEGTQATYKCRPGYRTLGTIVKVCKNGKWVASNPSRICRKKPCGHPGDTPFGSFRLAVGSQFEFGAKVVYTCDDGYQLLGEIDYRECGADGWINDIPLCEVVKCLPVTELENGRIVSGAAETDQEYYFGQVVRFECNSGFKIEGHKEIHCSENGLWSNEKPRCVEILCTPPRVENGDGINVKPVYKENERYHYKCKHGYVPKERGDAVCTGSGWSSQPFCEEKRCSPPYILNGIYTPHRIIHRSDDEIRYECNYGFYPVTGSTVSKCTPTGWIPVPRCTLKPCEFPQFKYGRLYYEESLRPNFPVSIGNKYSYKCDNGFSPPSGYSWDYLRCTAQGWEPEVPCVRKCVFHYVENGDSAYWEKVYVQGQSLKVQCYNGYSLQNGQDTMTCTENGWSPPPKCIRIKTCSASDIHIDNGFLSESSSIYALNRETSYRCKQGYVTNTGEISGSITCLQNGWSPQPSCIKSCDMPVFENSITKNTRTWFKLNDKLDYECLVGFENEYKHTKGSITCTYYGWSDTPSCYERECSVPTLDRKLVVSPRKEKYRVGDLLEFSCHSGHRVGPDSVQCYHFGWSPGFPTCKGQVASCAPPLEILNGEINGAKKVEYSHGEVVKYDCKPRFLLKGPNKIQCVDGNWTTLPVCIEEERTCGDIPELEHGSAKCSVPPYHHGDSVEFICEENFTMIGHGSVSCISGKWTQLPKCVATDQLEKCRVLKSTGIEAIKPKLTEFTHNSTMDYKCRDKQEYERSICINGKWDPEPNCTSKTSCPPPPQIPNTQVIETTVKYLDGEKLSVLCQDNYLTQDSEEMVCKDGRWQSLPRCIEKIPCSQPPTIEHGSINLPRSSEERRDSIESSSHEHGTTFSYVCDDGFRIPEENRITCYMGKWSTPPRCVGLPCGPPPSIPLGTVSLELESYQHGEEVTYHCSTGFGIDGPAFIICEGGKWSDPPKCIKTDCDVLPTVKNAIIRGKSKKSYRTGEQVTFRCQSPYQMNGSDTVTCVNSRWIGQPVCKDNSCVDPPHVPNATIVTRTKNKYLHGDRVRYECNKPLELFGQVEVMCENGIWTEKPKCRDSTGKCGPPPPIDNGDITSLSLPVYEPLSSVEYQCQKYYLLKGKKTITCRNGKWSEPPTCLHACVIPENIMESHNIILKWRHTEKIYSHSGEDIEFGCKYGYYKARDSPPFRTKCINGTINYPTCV
For assay [5], the target named is human complement C7 (human) (UniProt P10643). As to the kind of experiment: SPR; Biacore 3000; ten micrograms of human C7, C9 or plasminogen conjugated on a CM5 chip (2823, 2034 and 2106 RU); 0.0625 to 1 uM histidine tagged CspA protein flowed over at 10 uL/min, 25°C; 1:1 Langmuir model.
human complement C7 (human), sequence (P10643 23-843): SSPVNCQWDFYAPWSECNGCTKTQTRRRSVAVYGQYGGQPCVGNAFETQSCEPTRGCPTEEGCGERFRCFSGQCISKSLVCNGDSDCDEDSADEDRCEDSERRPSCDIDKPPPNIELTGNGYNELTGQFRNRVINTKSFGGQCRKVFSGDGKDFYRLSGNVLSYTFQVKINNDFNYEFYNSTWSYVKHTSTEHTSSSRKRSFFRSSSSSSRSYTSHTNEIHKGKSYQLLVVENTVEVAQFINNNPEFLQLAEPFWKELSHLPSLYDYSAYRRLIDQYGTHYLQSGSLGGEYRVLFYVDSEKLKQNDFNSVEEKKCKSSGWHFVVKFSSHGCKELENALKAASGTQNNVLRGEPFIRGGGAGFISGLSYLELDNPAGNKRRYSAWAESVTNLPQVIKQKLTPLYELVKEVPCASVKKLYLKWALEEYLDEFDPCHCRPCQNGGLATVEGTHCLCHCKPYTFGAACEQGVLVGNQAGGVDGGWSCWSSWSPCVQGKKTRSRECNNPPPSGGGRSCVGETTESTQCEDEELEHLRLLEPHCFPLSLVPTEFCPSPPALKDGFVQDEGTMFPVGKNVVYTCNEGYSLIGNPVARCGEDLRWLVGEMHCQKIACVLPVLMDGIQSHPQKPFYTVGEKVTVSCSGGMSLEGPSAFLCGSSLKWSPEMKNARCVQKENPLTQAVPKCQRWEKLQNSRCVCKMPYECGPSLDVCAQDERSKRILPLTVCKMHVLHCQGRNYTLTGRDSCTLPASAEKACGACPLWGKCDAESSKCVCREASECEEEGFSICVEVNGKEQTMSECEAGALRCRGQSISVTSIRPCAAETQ
In assay [6] the target is human complement C9 (human) (UniProt P02748). Described as above.
human complement C9 (human), sequence (P02748 22-559): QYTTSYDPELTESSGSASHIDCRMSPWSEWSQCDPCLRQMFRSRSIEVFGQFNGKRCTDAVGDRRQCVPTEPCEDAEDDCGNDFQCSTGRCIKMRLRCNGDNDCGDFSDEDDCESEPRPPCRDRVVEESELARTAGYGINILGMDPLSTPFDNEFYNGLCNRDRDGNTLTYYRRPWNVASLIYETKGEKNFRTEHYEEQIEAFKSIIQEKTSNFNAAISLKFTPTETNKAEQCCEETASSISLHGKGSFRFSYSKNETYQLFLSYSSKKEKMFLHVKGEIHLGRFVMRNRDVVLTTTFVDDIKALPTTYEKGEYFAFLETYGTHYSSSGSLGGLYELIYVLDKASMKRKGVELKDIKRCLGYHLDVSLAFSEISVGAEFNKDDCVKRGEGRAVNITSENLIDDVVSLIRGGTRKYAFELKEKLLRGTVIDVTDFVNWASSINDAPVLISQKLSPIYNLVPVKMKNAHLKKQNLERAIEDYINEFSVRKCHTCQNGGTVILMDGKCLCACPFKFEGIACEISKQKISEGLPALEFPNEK
For assay [7], the target named is human plasminogen (human). Described as above.
Assay [8] deals with factor H (FH) from Coturnix quail (Coturnix coturnix quail). Put plainly: ELISA; one microgram of FH coated on microtiter wells; 0.03125 to 2 μM histidine-tagged CspA proteins or DbpA added; detected by mouse anti-histidine tag; KD from a one-site fit of OD405.
The target in assay [9] is factor H (FH) from horse (horse). As to the kind of experiment: SPR; Biacore 3000; ten micrograms of FH from human, mouse or horse conjugated to a CM5 chip; CspA proteins injected at 10 μL/min, 25°C; 1:1 Langmuir model.
Assay [10] has the same target. As to the kind of experiment: ELISA; one microgram of FH coated on microtiter wells; 0.03125 to 2 μM histidine-tagged CspA proteins or DbpA added; detected by mouse anti-histidine tag; KD from a one-site fit of OD405.

What is called Kd is the equilibrium constant for the complex coming apart. Low readings indicate tighter binding, high ones weaker binding. By koff is commonly meant a measure of how fast the partners let go of each other. By kon is commonly meant the rate constant with which the complex forms. Regarding “recombinant histidine-tagged CspA of B. afzelii strain PKo (CspAPKo) (from UniProt G0IU82 1-241) (natural protein)”, the Kd came out at 110 nM in [1], 460 nM in assay [2], 160 nM in [3] and 760 nM in assay [4]. Also, the koff in [1] is 0.014 s⁻¹; in assay [2] it was 0.048 s⁻¹. Besides, the values for the kon in assay [1] and in assay [2] were 152000 M⁻¹ s⁻¹ and 115000 M⁻¹ s⁻¹, respectively.
Consider “CspA (Bba68) from B. burgdorferi strain B31, histidine tagged, residue 26 to 252 with leucine-246 replaced by aspartate (domain or fragment)”, for which, in assay [5], the Kd came to 3500 nM, the koff amounted to 0.38 s⁻¹ and the kon stood at 143000 M⁻¹ s⁻¹. In assay [6], this substance yielded a Kd of 5400 nM, a koff of 0.36 s⁻¹ and a kon of 70000 M⁻¹ s⁻¹. In addition, in assay [7], the Kd worked out at 6480 nM, the koff came out at 0.29 s⁻¹ and the kon was 49000 M⁻¹ s⁻¹.
“recombinant histidine-tagged CspA of B. garinii strain ZQ1 (CspAZQ1) (natural protein)” yielded a Kd in assay [8] of 360 nM.
On to “recombinant histidine-tagged CspA of B. burgdorferi strain B31 (CspAB31) (natural protein)”, for which the dissociation constant Kd turned out to be 550 nM in assay [9]; 200 nM in [1]; 70 nM in assay [2]; 920 nM in assay [8]; 880 nM in assay [10]; 410 nM in [3]. Also, in [4], the Kd came to 230 nM. Further, the koff was 0.014 s⁻¹ in [9], 0.017 s⁻¹ in assay [1] and 0.012 s⁻¹ in assay [2]. Besides, the values for the kon in assay [9], in assay [1] and in assay [2] were 30000 M⁻¹ s⁻¹, 114000 M⁻¹ s⁻¹ and 188000 M⁻¹ s⁻¹, respectively.
As for “CspA (Bba68) from B. burgdorferi strain B31, histidine tagged, residue 26 to 252 (domain or fragment)”, the Kd in assay [5] was 5260 nM; in assay [6], 5470 nM; in assay [7] it was 6350 nM. For the same substance, the figures for the koff in [5], in [6] and in assay [7] were 0.45 s⁻¹, 0.32 s⁻¹ and 0.26 s⁻¹, respectively. The figures for the kon in assay [5], in assay [6] and in [7] were 94000 M⁻¹ s⁻¹, 60000 M⁻¹ s⁻¹ and 43000 M⁻¹ s⁻¹, respectively.

Values taken from article PMC5993331.
